Here are results for 4 molecules from publication PMC6321010, “Interaction of the GTPase Elongation Factor Like-1 with the Shwachman-Diamond Syndrome Protein and Its Missense Mutations” (International Journal of Molecular Sciences, 2018).

Experiment [1] concerns the target T1, human Elongation Factor Like-1 (EFL1) (human, UniProt Q7Z2Z2 1-1120).
T1 construct: human EFL1, GTPase, said to comprise 1120 residues; the expressed protein is fused to a TEV recognition site and a hexahistidine tag at the C-terminus; also called human EFL1; GTPase Elongation Factor Like-1; source: S. cerevisiae BCY123 (pRS426 backbone, GAL1/10 promoter), purified
T1 sequence: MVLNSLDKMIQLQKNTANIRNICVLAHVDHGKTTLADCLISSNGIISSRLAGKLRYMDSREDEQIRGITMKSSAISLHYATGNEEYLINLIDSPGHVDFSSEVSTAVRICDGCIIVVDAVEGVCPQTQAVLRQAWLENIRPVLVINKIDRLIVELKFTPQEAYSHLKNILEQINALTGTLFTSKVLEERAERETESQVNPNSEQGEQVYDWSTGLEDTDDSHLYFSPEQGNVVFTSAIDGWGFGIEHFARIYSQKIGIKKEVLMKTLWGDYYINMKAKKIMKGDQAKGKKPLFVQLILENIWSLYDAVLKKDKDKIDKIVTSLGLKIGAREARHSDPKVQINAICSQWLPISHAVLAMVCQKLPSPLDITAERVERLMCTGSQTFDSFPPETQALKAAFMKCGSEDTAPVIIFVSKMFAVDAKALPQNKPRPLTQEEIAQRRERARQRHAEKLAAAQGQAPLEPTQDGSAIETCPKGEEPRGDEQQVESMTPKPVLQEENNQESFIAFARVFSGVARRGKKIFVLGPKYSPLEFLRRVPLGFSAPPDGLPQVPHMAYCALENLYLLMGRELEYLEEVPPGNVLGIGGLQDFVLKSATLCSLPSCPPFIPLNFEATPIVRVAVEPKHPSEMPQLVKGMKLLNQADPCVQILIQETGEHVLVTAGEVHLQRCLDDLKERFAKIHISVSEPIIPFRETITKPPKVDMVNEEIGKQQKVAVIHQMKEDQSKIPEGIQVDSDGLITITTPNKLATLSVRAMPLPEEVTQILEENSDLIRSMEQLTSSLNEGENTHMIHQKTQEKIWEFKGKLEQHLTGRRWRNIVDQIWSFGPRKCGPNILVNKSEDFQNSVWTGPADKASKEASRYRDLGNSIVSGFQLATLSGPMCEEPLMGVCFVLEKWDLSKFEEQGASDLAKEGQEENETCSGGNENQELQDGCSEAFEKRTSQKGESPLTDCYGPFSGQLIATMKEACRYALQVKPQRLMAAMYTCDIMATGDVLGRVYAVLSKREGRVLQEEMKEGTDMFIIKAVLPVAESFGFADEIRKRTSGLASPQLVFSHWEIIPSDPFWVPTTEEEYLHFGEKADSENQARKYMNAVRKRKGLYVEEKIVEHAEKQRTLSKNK
As to the kind of experiment: fluorescence polarisation; fluorescence anisotropy; 2 µL additions of 40-90 µM human EFL1 titrated into 300 µL of 0.1 µM Lumio Green-labelled human SBDS-FlAsH construct; 25 °C; 50 mM Tris-HCl pH 8, 300 mM NaCl, 5 mM β-mercaptoethanol; fitted to a single-site or a two different binding sites model. The settings on record: both partners purified. In general terms: In fluorescence polarisation assays a small probe gives low polarisation when free and higher when bound to something large.

Experiment [2] has as its target T2, yeast SBDS orthologue Sdo1 (recombinant, for SAXS) (yeast (S. cerevisiae), UniProt Q07953 1-250).
T2 construct: Sdo1, the yeast orthologue of SBDS; called the full-length Sdo1; source: E. coli C41 (pRSET plasmid), purified by conventional chromatographic techniques
T2 sequence (looked up): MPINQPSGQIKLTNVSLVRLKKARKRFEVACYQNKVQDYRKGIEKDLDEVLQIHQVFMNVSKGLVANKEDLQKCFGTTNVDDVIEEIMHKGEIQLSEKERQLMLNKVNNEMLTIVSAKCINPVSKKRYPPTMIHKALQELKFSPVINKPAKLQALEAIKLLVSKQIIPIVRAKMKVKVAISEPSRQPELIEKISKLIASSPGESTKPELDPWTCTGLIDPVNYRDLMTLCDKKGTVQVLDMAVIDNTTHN
As to the kind of experiment: SAXS coupled to on-line size exclusion chromatography; yeast Sdo1, EFL1 and the complex EFL1•Sdo1 at 10, 6.5 and 8 mg/mL injected onto a Shodex KW-403 column; 50 mM Tris pH 8.0, 10% glycerol, 300 mM NaCl, 5 mM MgCl2. The conditions noted are these: both partners purified.

B1: human SBDS domain 2 (residues 94-175) with C-terminal FlAsH tag, labelled with Lumio Green (domain or fragment, UniProt Q9Y3A5 94-175, looked up)
chain: QVSDKERHTQLEQMFRDIATIVADKCVNPETKRPYTVILIERAMKDIHYSVKTNKSTKQQALEVIKQLKEKMKIERAHMRLR
modifications: Lumio Green dye (4',5'-bis(1,3,2-dithioarsolan-2-yl) fluorescein) on the C-terminal FlAsH tag
notes: human SBDS, domain 2, residues 94-175; also called domain 2 of SBDS; source: E. coli C41 (pRSET plasmid), purified by conventional chromatographic techniques; not shown: FlAsH tag (Cys-Cys-Pro-Gly-Cys-Cys), C-terminal, kept
A word on the Kd: it is the concentration at which binding is half-saturated. Lower therefore signals higher affinity. In experiment [1], B1 gave a Kd of 10.8 ± 0.9 µM.

B2: human SBDS domains 2-3 (residues 94-250) with C-terminal FlAsH tag, labelled with Lumio Green (domain or fragment, UniProt Q9Y3A5 94-250, looked up)
chain: QVSDKERHTQLEQMFRDIATIVADKCVNPETKRPYTVILIERAMKDIHYSVKTNKSTKQQALEVIKQLKEKMKIERAHMRLRFILPVNEGKKLKEKLKPLIKVIESEDYGQQLEIVCLIDPGCFREIDELIKKETKGKGSLEVLNLKDVEEGDEKFE
modifications: Lumio Green dye (4',5'-bis(1,3,2-dithioarsolan-2-yl) fluorescein) on the C-terminal FlAsH tag
notes: human SBDS, domains 2-3, residues 94-250; also called construct consisting of domains 2-3 of SBDS; source: E. coli C41 (pRSET plasmid), purified by conventional chromatographic techniques; not shown: FlAsH tag (Cys-Cys-Pro-Gly-Cys-Cys), C-terminal, kept
In experiment [1], B2 displayed a Kd of 4.6 ± 0.3 µM.

B3: human SBDS domain 1 (residues 1-94) with C-terminal FlAsH tag, labelled with Lumio Green (domain or fragment, UniProt Q9Y3A5 1-94, looked up)
chain: MSIFTPTNQIRLTNVAVVRMKRAGKRFEIACYKNKVVGWRSGVEKDLDEVLQTHSVFVNVSKGQVAKKEDLISAFGTDDQTEICKQILTKGEVQ
modifications: Lumio Green dye (4',5'-bis(1,3,2-dithioarsolan-2-yl) fluorescein) on the C-terminal FlAsH tag
notes: human SBDS, domain 1, residues 1-94; also called domain 1 of SBDS; source: E. coli C41 (pRSET plasmid), purified by conventional chromatographic techniques; not shown: FlAsH tag (Cys-Cys-Pro-Gly-Cys-Cys), C-terminal, kept
In experiment [1], B3 returned a Kd of 15.2 ± 0.72 µM.

B4: yeast EFL1 (recombinant, for SAXS) (enzyme, yeast (S. cerevisiae), UniProt P53893 1-1110, looked up)
chain: MPRVESETYKRLQNDPSCIRNICIVAHVDHGKTSLSDSLLASNGIISQRLAGKIRFLDARPDEQLRGITMESSAISLYFRVLRKQEGSDEPLVSEHLVNLIDSPGHIDFSSEVSAASRLCDGAVVLVDVVEGVCSQTVTVLRQCWTEKLKPILVLNKIDRLITELQLTPQEAYIHLSKVIEQVNSVIGSFFANERQLDDLFWREQLEKNENAEYIEKDDSGIYFNPTDNNVIFASAIDGWGFNIGQLAKFYEQKLGAKRENLQKVLWGDFYMDPKTKKIINNKGLKGRSLKPLFTSLILENIWKIYQNIITSRDSEMVEKIAKTLNIKLLARDLRSKDDKQLLRTIMGQWLPVSTAVLLTVIEKLPSPLESQTDRLNTILVSESDTAAMDPRLLKAMKTCDKEGPVSAYVSKMLSIPREELPVESKRIASSDELMERSRKAREEALNAAKHAGMVENMAMMDLNDNSKNTSDLYKRAKDTVMTPEVGEQTKPKPSRNNDVFCVVSEPSSALDLEFEYEGEDDSDSQDNFGLDFVPTDIDPNDPLSSMFEYEEEDPLLESIKQISEDVNDEVDDIFDEKEECLVAFARIYSGTLRVGQEISVLGPKYDPKCPEEHIETAIITHLYLFMGKELVPLDVCPSGNIVGIRGLAGKVLKSGTLIEKGVQGVNLAGVNFHFTPIVRVAVEPANPVEMSKLVRGLKLLDQADPCVHTYVENTGEHILCTAGELHLERCLKDLTERFAGIEITHSEPAIPYRETFLSASDMNPPQNSQLGRGVHELLLSQYKITFRTFPLSGKVTDFLSQHQNSIKNILKTSTSSMDPVIESTGSSFLDKKSLLVAFEEVINQEEKSRELLSGFKVKLAGFGPSRVGCNILLSQDNLLGSLFEGTPAAFEYSDSIKNGFQLAVSEGPLANEPVQGMCVLVESVHKMSQDEIESIEDPRYQQHIVDLSGRLITSTRDAIHEAFLDWSPRIMWAIYSCDIQTSVDVLGKVYAVILQRHGKIISEEMKEGTPFFQIEAHVPVVEAFGLSEDIRKRTSGAAQPQLVFSGFECIDLDPFWVPTTEEELEELGDTADRENIARKHMNAIRRRKGLFIEEKVVENAEKQRTLKKN
notes: yeast EFL1 (GTPase); the model's rigid parts run over residues 1-1110; source: S. cerevisiae BCY123 (pRS426 backbone, GAL1/10 promoter), purified
The stoichiometry N is a count of units in the complex or per binding partner. With B4, in experiment [2], the “stoichiometry N” value was 1.
